Substitutions are numbered along the chain they refer to. Several values for one entry are separate records, joined by “and”; a condition that tells them apart may be missing. Equal entries are not always repeated.
T1: yNpl4^113–580 (E123A K124A E125A) (Saccharomyces cerevisiae, UniProt P33755 113-580, E123A | K124A | E125A)
T1 construct: not shown: GST, N-terminal, cleaved
T1 sequence (looked up): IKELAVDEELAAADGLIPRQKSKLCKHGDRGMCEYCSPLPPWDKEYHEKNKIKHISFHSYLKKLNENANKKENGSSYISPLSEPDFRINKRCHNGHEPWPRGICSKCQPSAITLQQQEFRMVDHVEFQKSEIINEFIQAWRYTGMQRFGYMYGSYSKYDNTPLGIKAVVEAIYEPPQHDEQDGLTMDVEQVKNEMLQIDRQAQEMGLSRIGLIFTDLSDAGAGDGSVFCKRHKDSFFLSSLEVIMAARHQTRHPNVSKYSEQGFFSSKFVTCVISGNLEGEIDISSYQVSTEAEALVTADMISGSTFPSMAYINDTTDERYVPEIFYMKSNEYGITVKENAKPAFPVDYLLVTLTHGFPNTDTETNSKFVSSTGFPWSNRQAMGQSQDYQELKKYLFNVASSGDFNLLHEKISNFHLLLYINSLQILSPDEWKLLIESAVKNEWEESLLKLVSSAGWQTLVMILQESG

B1: GST-yUfd1 (full length) (natural protein, Saccharomyces cerevisiae, UniProt P53044 1-361, looked up)
chain: MFSGFSSFGGGNGFVNMPQTFEEFFRCYPIAMMNDRIRKDDANFGGKIFLPPSALSKLSMLNIRYPMLFKLTANETGRVTHGGVLEFIAEEGRVYLPQWMMETLGIQPGSLLQISSTDVPLGQFVKLEPQSVDFLDISDPKAVLENVLRNFSTLTVDDVIEISYNGKTFKIKILEVKPESSSKSICVIETDLVTDFAPPVGYVEPDYKALKAQQDKEKKNSFGKGQVLDPSVLGQGSMSTRIDYAGIANSSRNKLSKFVGQGQNISGKAPKAEPKQDIKDMKITFDGEPAKLDLPEGQLFFGFPMVLPKEDEESAAGSKSSEQNFQGQGISLRKSNKRKTKSDHDSSKSKAPKSPEVIEID
notes: Ufd1 of Saccharomyces cerevisiae (yUfd1), full length; also called GST-Ufd1; source: E. coli Rosetta (DE3) (pGEX-6P1), purified (Glutathione Sepharose FF, Resource Q); not shown: GST, N-terminal, kept
B2: GST-yNpl4 T571A (natural protein, Saccharomyces cerevisiae, UniProt P33755 1-580, looked up)
chain: MLIRFRSKNGTHRVSCQENDLFGTVIEKLVGNLDPNADVDTFTVCEKPGQGIHAVSELADRTVMDLGLKHGDMLILNYSDKPANEKDGVNVEIGSVGIDSKGIRQHRYGPLRIKELAVDEELEKEDGLIPRQKSKLCKHGDRGMCEYCSPLPPWDKEYHEKNKIKHISFHSYLKKLNENANKKENGSSYISPLSEPDFRINKRCHNGHEPWPRGICSKCQPSAITLQQQEFRMVDHVEFQKSEIINEFIQAWRYTGMQRFGYMYGSYSKYDNTPLGIKAVVEAIYEPPQHDEQDGLTMDVEQVKNEMLQIDRQAQEMGLSRIGLIFTDLSDAGAGDGSVFCKRHKDSFFLSSLEVIMAARHQTRHPNVSKYSEQGFFSSKFVTCVISGNLEGEIDISSYQVSTEAEALVTADMISGSTFPSMAYINDTTDERYVPEIFYMKSNEYGITVKENAKPAFPVDYLLVTLTHGFPNTDTETNSKFVSSTGFPWSNRQAMGQSQDYQELKKYLFNVASSGDFNLLHEKISNFHLLLYINSLQILSPDEWKLLIESAVKNEWEESLLKLVSSAGWQALVMILQESG
notes: Npl4 of Saccharomyces cerevisiae (yNpl4), full length; source: E. coli Rosetta (DE3) (pGEX-6P1), purified (Glutathione Sepharose FF, Resource Q); not shown: GST, N-terminal, kept
B3: GST-yNpl4 A494F (natural protein, Saccharomyces cerevisiae, UniProt P33755 1-580, looked up)
chain: B2 chain with A494F, A571T
notes: as for B2
B4: GST-yNpl4 M574Q (natural protein, Saccharomyces cerevisiae, UniProt P33755 1-580, looked up)
chain: B2 chain with A571T, M574Q
notes: as for B2
B5: GST-yNpl4 M574A (natural protein, Saccharomyces cerevisiae, UniProt P33755 1-580, looked up)
chain: B2 chain with A571T, M574A
notes: as for B2
B6: GST-yNpl4 S498R (natural protein, Saccharomyces cerevisiae, UniProt P33755 1-580, looked up)
chain: B2 chain with S498R, A571T
notes: as for B2
B7: GST-yNpl4 I575A (natural protein, Saccharomyces cerevisiae, UniProt P33755 1-580, looked up)
chain: B2 chain with A571T, I575A
notes: as for B2
B8: His6-yNpl4^113–580 (domain or fragment, Saccharomyces cerevisiae, UniProt P33755 113-580, looked up)
chain: T1 sequence (looked up) with A11E, A12K, A13E
notes: codon-optimized synthetic cDNA; also called WT; WT #1; source: E. coli Rosetta (DE3), purified (Ni-NTA, Resource Q); also in lysate, mixed with cells expressing GST-yUfd1 for co-purification; not shown: His6, N-terminal, kept
B9: His6-yNpl4^113–580 S498L (domain or fragment, Saccharomyces cerevisiae, UniProt P33755 113-580, looked up)
chain: T1 sequence (looked up) with A11E, A12K, A13E, S386L
notes: source: E. coli Rosetta (DE3), purified (Ni-NTA, Resource Q); not shown: His6, N-terminal, kept
B10: yUfd1–His6-yNpl4^113–580 complex (complex, Saccharomyces cerevisiae)
chain 1: B1 chain
chain 2: T1 sequence (looked up) with A11E, A12K, A13E
notes: Ufd1 of Saccharomyces cerevisiae (yUfd1), full-length gene in pGEX-6P1; also called yUfd1–yNpl4; not shown: GST, N-terminal, cleaved; His6, N-terminal, kept
B11: His6-yNpl4^113–580 S498R (domain or fragment, Saccharomyces cerevisiae, UniProt P33755 113-580, looked up)
chain: T1 sequence (looked up) with A11E, A12K, A13E, S386R
notes: as for B9
B12: yUfd1^288–305 (peptide, UniProt P53044 288-305, looked up)
chain: EPAKLDLPEGQLFFGFPM
notes: also called yUfd1 NBM; not shown: GST, N-terminal, cleaved

Columns and labels:
Conditions in all cases: both partners purified
[1] = target: T2, Cdc48 (recombinant, hexameric) (Saccharomyces cerevisiae, UniProt P25694 1-835); test: pull-down; GST-yUfd1 (0.5 μM) on Glutathione Sepharose 4B beads with His6-tagged Npl4 (wild type or mutant), Cdc48 and K48 chains; same binding buffer (Supplementary Fig. 3b)
T2 construct: Cdc48 AAA-family ATPase of Saccharomyces cerevisiae; source: E. coli Rosetta (DE3) (pET21a), purified (TALON resin, Superose 6)

[2] = target: T2, Cdc48 (recombinant, hexameric); test: pull-down; GST-yNpl4 (0.5 μM, wild type or mutant) on Glutathione Sepharose 4B beads, 1 h at room temperature with 0.5 μM yUfd1, 3 μM Cdc48 (0.5 μM hexamer) and 1 μg K48 chains in 100 μL 50 mM Tris-HCl pH 7.5, 100 mM NaCl, 10% glycerol, 0.1% Triton X-100; chains detected by anti-Ub immunoblot, proteins by Ponceau S
M1-Ub4 = target: T3, M1-Ub4 (UniProt P0CG48 1-76; P0CG48 1-76; P0CG48 1-76; P0CG48 1-76); test: SPR; Biacore T200, 25 °C; wild-type or mutant His6-yNpl4^113–580, yUfd1–His6-yNpl4^113–580 or His6-hNpl4 immobilized on a CM5 chip by amine coupling; Ub2 or Ub4 in two-fold dilution series injected 60 s at 10 μL per min in 10 mM HEPES-NaOH pH 7.5, 150 mM NaCl, 0.05% Tween-20, 0.5 g/L BSA; equilibrium Kd
T3 construct: ubiquitin (Ub), first unit; ubiquitin (Ub), second unit; ubiquitin (Ub), third unit; ubiquitin (Ub), fourth unit

M1-Ub2 = target: T4, M1-Ub2 (UniProt P0CG48 1-76; P0CG48 1-76); test: as above
T4 construct: ubiquitin (Ub), first unit; ubiquitin (Ub), second unit

[3] = target: T1, yNpl4^113–580 (E123A K124A E125A); test: crystal structure; yNpl4^113–580 (E123A K124A E125A)–yUfd1^288–305 complex; sitting drop, 20 °C, 90 mM Bis-Tris-HCl pH 7.5, 19% PEG3350, 10 mM ATP

T2 sequence (P25694 whole entry): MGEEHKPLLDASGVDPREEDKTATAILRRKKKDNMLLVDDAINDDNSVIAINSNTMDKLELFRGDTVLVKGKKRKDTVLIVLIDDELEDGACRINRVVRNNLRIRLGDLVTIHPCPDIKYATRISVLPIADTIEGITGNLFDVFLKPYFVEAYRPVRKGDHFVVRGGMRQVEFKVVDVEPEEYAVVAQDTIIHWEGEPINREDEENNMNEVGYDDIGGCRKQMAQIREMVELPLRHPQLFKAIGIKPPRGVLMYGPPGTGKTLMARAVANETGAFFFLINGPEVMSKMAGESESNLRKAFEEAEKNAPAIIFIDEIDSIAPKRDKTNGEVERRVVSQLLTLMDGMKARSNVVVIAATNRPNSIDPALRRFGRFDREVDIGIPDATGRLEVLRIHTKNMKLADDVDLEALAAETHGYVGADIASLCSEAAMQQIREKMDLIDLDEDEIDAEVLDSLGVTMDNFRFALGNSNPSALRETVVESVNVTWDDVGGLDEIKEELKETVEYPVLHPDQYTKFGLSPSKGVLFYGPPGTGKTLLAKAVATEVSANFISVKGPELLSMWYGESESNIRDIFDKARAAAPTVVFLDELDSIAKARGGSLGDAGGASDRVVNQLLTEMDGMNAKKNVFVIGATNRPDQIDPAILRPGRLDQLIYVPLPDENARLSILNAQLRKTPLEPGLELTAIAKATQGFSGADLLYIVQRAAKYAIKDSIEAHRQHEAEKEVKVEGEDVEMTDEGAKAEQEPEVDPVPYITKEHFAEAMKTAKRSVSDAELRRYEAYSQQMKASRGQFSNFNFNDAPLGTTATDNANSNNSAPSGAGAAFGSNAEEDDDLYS

Binder | binding result [2] | Kd (M1-Ub4) | further results
B1 |  |  | binding result [1]: binds
B2 | binds |  | 
B3 | binds |  | 
B4 | binds |  | 
B5 | binds |  | 
B6 | binds |  | 
B7 | binds |  | 
B8 |  | 139 µM and 103 µM | Kd (M1-Ub2): 333 µM and 420 µM
B9 |  | 101 µM | 
B10 |  | 151 µM | 
B11 |  | 136 µM | 
B12 |  |  | binding result [3]: binds
